In EP4796567A2 (Nepenthe Bioscience, LLC, dated 2026):
Where a chain is given by its changes, count along the chain named. Values belong to the binder of their own block, whether it stands above or below them.

Tests used:
CD79 [1] = biological target: T1, CD79 (UniProt P11912 33-143; P40259 29-159, limits assumed); test: antigen binding kinetics; method not named (antibody is the 'Loading Sample')
T1 construct: also called CD79 antigen; soluble biotinylated CD79 antigen
T1 sequence (looked up) 1: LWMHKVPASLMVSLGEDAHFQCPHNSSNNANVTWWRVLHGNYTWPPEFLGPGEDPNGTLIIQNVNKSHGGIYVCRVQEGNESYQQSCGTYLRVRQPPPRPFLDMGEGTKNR
T1 sequence (looked up) 2: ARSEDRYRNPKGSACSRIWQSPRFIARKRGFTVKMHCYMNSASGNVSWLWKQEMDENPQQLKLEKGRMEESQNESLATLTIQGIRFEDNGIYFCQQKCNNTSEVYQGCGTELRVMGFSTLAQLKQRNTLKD

CD79 [2] = biological target: T1, CD79; test: binding kinetics to CD79; method not named (antibody is the 'Loading Sample')
CD79 [3] = biological target: T1, CD79; test: binding kinetics of full length IgG to CD79; method not named (antibody is the 'Loading Sample')

Kd (CD79 [2]): 59 nM
koff (CD79 [2]): 0.0054 s⁻¹
kon (CD79 [2]): 92000 M⁻¹ s⁻¹
B2: humanized anti-CD79 antibody H1L1 (antibody, V domains shown)
VH: QVQLVQSGAEVKKPGASVKVSCKASGYAFSYSWMNWVRQAPGQGLEWMGRIYPENGDTNYNGKFKGRVTMTRDTSISTAYMELSRLRSDDTAVYYCARWVYGYPHFDYWGQGTLVTVSS
VL: DVVMTQSPLSLPVTLGQPASISCKSSQSLLDSDGKTYLNWFQQRPGQSPRRLIYLVSKLDSGVPDRFSGSGSGTDFTLKISRVEAEDVGVYYCWQGTHFPFTFGGGTKVEIK

Kd (CD79 [2]): 140 nM
koff (CD79 [2]): 0.0086 s⁻¹
kon (CD79 [2]): 61000 M⁻¹ s⁻¹
B5: humanized anti-CD79 antibody H3L2 (antibody, V domains shown)
VH: B2 VH with M48I, M70L, R72A, T74K
VL: B2 VL with F41L

Kd (CD79 [2]): 90 nM
koff (CD79 [2]): 0.0071 s⁻¹
kon (CD79 [2]): 79000 M⁻¹ s⁻¹
B7: humanized anti-CD79 antibody H2L1 (antibody, V domains shown)
VH: B2 VH with R72A
VL: B2 VL

Kd (CD79 [1]): 0.706 nM
koff (CD79 [1]): 4.14e-05 s⁻¹
kon (CD79 [1]): 58700 M⁻¹ s⁻¹
Kd (CD79 [3]): 2 nM
koff (CD79 [3]): 0.000159 s⁻¹
kon (CD79 [3]): 79700 M⁻¹ s⁻¹
B8: humanized anti-CD79 antibody LB517/LB519 (antibody, V domains shown)
VH: B2 VH with Y103L
VL: B2 VL with F41L, F99L
notes: Full length IgG produced from 293 cells; also called hCur14 FALA

Kd (CD79 [2]): 130 nM
koff (CD79 [2]): 0.011 s⁻¹
kon (CD79 [2]): 79000 M⁻¹ s⁻¹
B10: humanized anti-CD79 antibody H3L3 (antibody, V domains shown)
VH: B2 VH with M48I, M70L, R72A, T74K
VL: B2 VL with F41L, R50K

Kd (CD79 [2]): 61 nM
koff (CD79 [2]): 0.0051 s⁻¹
kon (CD79 [2]): 84000 M⁻¹ s⁻¹
B11: humanized anti-CD79 antibody H2L3 (antibody, V domains shown)
VH: B2 VH with R72A
VL: B2 VL with F41L, R50K

Kd (CD79 [2]): 290 nM
koff (CD79 [2]): 0.013 s⁻¹
kon (CD79 [2]): 43000 M⁻¹ s⁻¹
B13: humanized anti-CD79 antibody H3L1 (antibody, V domains shown)
VH: B2 VH with M48I, M70L, R72A, T74K
VL: B2 VL

Kd (CD79 [2]): 46 nM
koff (CD79 [2]): 0.0046 s⁻¹
kon (CD79 [2]): 100000 M⁻¹ s⁻¹
B14: humanized anti-CD79 antibody H2L2 (antibody, V domains shown)
VH: B2 VH with R72A
VL: B2 VL with F41L

Kd (CD79 [1]): 0.837 nM
koff (CD79 [1]): 5.11e-05 s⁻¹
kon (CD79 [1]): 61000 M⁻¹ s⁻¹
B17: engineered anti-CD79 antibody LB632/519 (antibody, V domains shown)
VH: B2 VH with N55S, N61A, Y103L
VL: B2 VL with F41L, F99L
notes: Both NG motifs of VH CDR2 engineered; Produced in 293 cells by transient transfection; also called LB632/LB519

Kd (CD79 [1]): < 0.001 nM
koff (CD79 [1]): < 1e-07 s⁻¹
kon (CD79 [1]): 55800 M⁻¹ s⁻¹
B18: engineered anti-CD79 antibody LB630/519 (antibody, V domains shown)
VH: B2 VH with N55S, Y103L
VL: B2 VL with F41L, F99L
notes: First NG motif of VH CDR2 engineered to NS; Produced in 293 cells by transient transfection; also called LB630/LB519

Kd (CD79 [1]): 1.04 nM
koff (CD79 [1]): 6.1e-05 s⁻¹
kon (CD79 [1]): 58600 M⁻¹ s⁻¹
B20: engineered anti-CD79 antibody LB631/519 (antibody, V domains shown)
VH: B2 VH with N61A, Y103L
VL: B2 VL with F41L, F99L
notes: Second NG motif of VH CDR2 engineered to NA; Produced in 293 cells by transient transfection; also called LB631/LB519

Kd (CD79 [2]): 49 nM
koff (CD79 [2]): 0.004 s⁻¹
kon (CD79 [2]): 82000 M⁻¹ s⁻¹
B21: humanized anti-CD79 antibody H1L3 (antibody, V domains shown)
VH: B2 VH
VL: B2 VL with F41L, R50K

Kd (CD79 [2]): 60 nM
koff (CD79 [2]): 0.0056 s⁻¹
kon (CD79 [2]): 93000 M⁻¹ s⁻¹
B22: chimeric anti-CD79 antibody HcLc (antibody, V domains shown)
VH: QVQLQQSGPELVKPGASVKISCKASGYAFSYSWMNWVKQRPGKGLEWIGRIYPENGDTNYNGKFKGKVTLTADKSSSTAYMQLSSLTSEDSAVYFCARWVYGYPHFDYWGQGTTLTVSS
VL: not shown
notes: Mouse VH fused to human IgG2 CH1, CH2 and CH3 domains; mouse VL fused to a human kappa CL domain

Second part, the binder before the results:

B1: humanized anti-CD79 antibody H1L2 (antibody, V domains shown)
VH: B2 VH
VL: B2 VL with F41L
notes: also called LB495/PRI47; PRI43/PRI47
Kd (CD79 [1]): 9.22 nM
koff (CD79 [1]): 0.000384 s⁻¹
kon (CD79 [1]): 41700 M⁻¹ s⁻¹
Kd (CD79 [2]): 45 nM
koff (CD79 [2]): 0.0041 s⁻¹
kon (CD79 [2]): 91000 M⁻¹ s⁻¹
Kd (CD79 [3]): 5.1 nM
koff (CD79 [3]): 0.000429 s⁻¹
kon (CD79 [3]): 84100 M⁻¹ s⁻¹

B3: affinity matured anti-CD79 antibody LB517/PRI47 (antibody, V domains shown)
VH: B2 VH with Y103L
VL: B2 VL with F41L
notes: Full length IgG produced from 293 cells
Kd (CD79 [3]): 3.55 nM
koff (CD79 [3]): 0.000311 s⁻¹
kon (CD79 [3]): 87500 M⁻¹ s⁻¹

B4: affinity matured anti-CD79 antibody LB495/520 (antibody, V domains shown)
VH: B2 VH
VL: B2 VL with F41L, F99R
notes: Full length IgG produced from 293 cells; also called LB495/LB520
Kd (CD79 [3]): 3.76 nM
koff (CD79 [3]): 0.000374 s⁻¹
kon (CD79 [3]): 99600 M⁻¹ s⁻¹

B6: affinity matured anti-CD79 antibody LB517/518 (antibody, V domains shown)
VH: B2 VH with Y103L
VL: B2 VL with F41L, F99I
notes: Full length IgG produced from 293 cells; also called LB517/LB518
Kd (CD79 [3]): 2.24 nM
koff (CD79 [3]): 0.000199 s⁻¹
kon (CD79 [3]): 88500 M⁻¹ s⁻¹

B9: affinity matured anti-CD79 antibody LB495/519 (antibody, V domains shown)
VH: B2 VH
VL: B2 VL with F41L, F99L
notes: Full length IgG produced from 293 cells; also called LB495/LB519
Kd (CD79 [3]): 3.14 nM
koff (CD79 [3]): 0.000252 s⁻¹
kon (CD79 [3]): 80300 M⁻¹ s⁻¹

B12: affinity matured anti-CD79 antibody LB495/518 (antibody, V domains shown)
VH: B2 VH
VL: B2 VL with F41L, F99I
notes: Full length IgG produced from 293 cells; also called LB495/LB518
Kd (CD79 [3]): 3.64 nM
koff (CD79 [3]): 0.000332 s⁻¹
kon (CD79 [3]): 91200 M⁻¹ s⁻¹

B15: affinity matured anti-CD79 antibody LB517/521 (antibody, V domains shown)
VH: B2 VH with Y103L
VL: B2 VL with F41L, F99V
notes: Full length IgG produced from 293 cells; also called LB517/LB521
Kd (CD79 [3]): 2.3 nM
koff (CD79 [3]): 0.000201 s⁻¹
kon (CD79 [3]): 87500 M⁻¹ s⁻¹

B16: affinity matured anti-CD79 antibody LB495/521 (antibody, V domains shown)
VH: B2 VH
VL: B2 VL with F41L, F99V
notes: Full length IgG produced from 293 cells; also called LB495/LB521
Kd (CD79 [3]): 3.65 nM
koff (CD79 [3]): 0.000362 s⁻¹
kon (CD79 [3]): 99100 M⁻¹ s⁻¹

B19: affinity matured anti-CD79 antibody LB517/520 (antibody, V domains shown)
VH: B2 VH with Y103L
VL: B2 VL with F41L, F99R
notes: Full length IgG produced from 293 cells; also called LB517/LB520
Kd (CD79 [3]): 2.4 nM
koff (CD79 [3]): 0.000234 s⁻¹
kon (CD79 [3]): 97800 M⁻¹ s⁻¹
